Results on one molecule are retold here after patent US20130323234A1 (Pfizer, published 2013).

In one test the target is IGF1R (UniProt P08069 31-932, limits assumed). Briefly: cell-based or functional assay.
For test [1], the target named is IGF1R on the human colon carcinoma cell line Colo205 (human, UniProt P08069 31-1367). Briefly: cell-based or functional assay.

B1: 2.12.1.fx antibody (antibody, human IgG2, kappa, V domains shown)
VH: QVQLVESGGGLVKPGGSLRLSCAASGFTFSDYYMSWIRQAPGKGLEWVSYISSSGSTRDYADSVKGRFTISRDNAKNSLYLQMNSLRAEDTAVYYCVRDGVETTFYYYYYGMDVWGQGTTVTVSS
VL: DIQMTQSPSSLSASVGDRVTITCRASQDIRRDLGWYQQKPGKAPKRLIYAASRLQSGVPSRFSGSGSGTEFTLTISSLQPEDFATYYCLQHNNYPRTFGQGTKLVIKR
On to B1, for which the figures for the “% IGF1R downregulated” value (with IGF1R; in test [1]) were 36% and 48%, respectively.
